Measured values taken from patent US20230227508A1, “SPLIT INTEIN-BASED SELECTION FOR PEPTIDE BINDERS” (priority 2020, published 2023).

Tested on: Bacillus subtilis PY79
Experiment: Haloduracin agar spot assay on indicator strain
Assay type: cell-based
Conditions: 5 μL of cleaved, desalted core peptide in 1:1 methanol:water on LB-agar
Method: To assay for antimicrobial activity, the cleaved and desalted core peptides were resuspended in 50 μL 1:1 methanol:water. Bacillus subtilis PY79 was used as indicator strain and was spread on a LB-agar surface, on which 5 μL of either or both haloduracins or a solvent control was added.

| Molecule | antibacterial activity, growth inhibition on agar |
| --- | --- |
| haloduracin A1 (peptide) MTNLLKEWKMPLERTHNNSNPAGDIFQELEDQDILAGVNGAENLYFQGCAWYNISCRLGNKGAYCTLTVECMPSCN | minimal antibacterial activity |
| haloduracin A2 (peptide) MVNSKDLRNPEFRKAQGLQFVDEVNEKELSSLAGSENLYFQGTTWPCATVGVSVALCPTTKCTSQC | minimal antibacterial activity |
